{
  "source": "paper PMC11098746",
  "about": "(2024)",
  "binders": {"B1": {"name": "ADP190 (protein)", "chain": "IQLHSVNYAPLNYIEIGDTLSNKVGELWHSHLNSFIDIVSTKVVNKLEDDLSNGNNLEKFMILLEDDADIFDASAYEGKNLALIQTEFIRKLKDKFKNSKFGQKLKKLGSKAKEKLLSLYQKHKGKLRHFFSILLKSLVIPIAVQFIRKNLNKWKQRTLEATQKLDEQSKNIAQPIINRLYNSFEDKIEEYSQENKINVEDELNALGQLDKDKQDIQKLEEQEKALLQ", "modifications": "bait human Fc-tagged dimer; N-glycosylation sequons mutated in Plasmodium baits"}, "B2": {"name": "ADP222 (protein)", "chain": "NVVAPKSAEAVHTLTAKLDTENKAHQKYIDIINGVFSENMENFVFSITTSNGFTCSINKLDVIFDNKVTGMQKVFSDENVQYIKEASLEFKNNLLEYMKGVMPSENDFSNVRKEFQKVCVKYFSELRRKFFQIYRDPNNKNQNEDNVDNHMNIEEISQEFFSGFNPFGTMKIRKEQNPDLSQKDSLILNENNNDALTSADQKNNNMVPMENRAFSYSQQSSHVVSFDGHDEHVEQQEQHSGDNTQEDKDQLMDLPFNKDKVFSTFLKNVALLIEGNCAEAQQQAQEQTQEQTEEQEEEQNEKEIESDKQVQKDGEQKENDVQKKQKANAFTIQFSSSLSRKHISTTCNAASGNVFLRKGNKPFEHFNSPNFENMMKGVFGIIQNPFENGQPTFPFFKNINSISGIGNVDIPKNFMNDFLNNGNDQNTPISS", "modifications": "bait human Fc-tagged dimer; N-glycosylation sequons mutated in Plasmodium baits"}, "B3": {"name": "ADP233 (protein)", "chain": "SPGNDNNNVNNDGVVHVLSKNIDVKNLQGTFYEIATNAADKIFPGLACRCTKYEFSGLKRDGNLGYVLINFACARNFIFGEKKSEMTFKLILNKPLDENTATVEEFNAAIYLVQGNQQILLNGNINIIYAELNEQNEFEHLILGGQKSIEPMIIMSKYRTVLLDTYNKLINSLYLAGYEPSLLTWPFIIQTDQTFCD", "modifications": "bait human Fc-tagged dimer; N-glycosylation sequons mutated in Plasmodium baits"}, "B4": {"name": "ADP70 (protein)", "chain": "FENAIKKTKNQENNLALLPIKSTEEEKDDIKNGKDIKKEIDNDKENIKTNNAKDHSTYIKSYLNTNVNDGLKYLFIPSHNSFIKKYSVFNQINDGMLLNEKNDVKNNEDYKNVDYKNVNFLQYHFKELSNYNIANSIDILQEKEGHLDFVIIPHYTFLDYYKHLSYNSIYHKSSTYGKCIAVDAFIKKINEAYDKVKSKCNDIKNDLIATIKKLEHPYDINNKNDDSYRYDISEEIDDKSEETDDETEEVEDSIQDTDSNHAPSNKKKNDLMNRAFKKMMDEYNTKKKKLIKCIKNHENDFNKICMDMKNYGTNLFEQLSCYNNNFCNTNGIRYHYDEYIHKLILSVKSKNLNKDLSDMTNILQQSELLLTNLNKKMGSYIYIDTIKFIHKEMKHIFNRIEYHTKIINDKTKIIQDKIKLNIWRTFQKDELLKRILDMSNEYSLFITSDHLRQMLYNTFYSKEKHLNNIFHHLIYVLQMKFNDVPIKMEYFQTYKKNKPLTQ", "modifications": "bait human Fc-tagged dimer; N-glycosylation sequons mutated in Plasmodium baits"}, "B5": {"name": "ADP198 (protein)", "chain": "ENVDTFKCNYAKKKKNGHHIKRHITNDEEKKKEYSFLMLGKENEEENKENKENNQNVNKDNNDNNNNEKKNEEQNHNNEKKQEEVINNNNNNVENKKEEENHNNDKKTDEQNHVNEKKQEGENNKHKKDDTIPPEKKINKENLLEYGTHDKEGHFIPSYKTLTDEILSTNNAMEKASSFLKIACSHVMKLIEFIPESKLSSQYIKVDNKNIYLKDIAVECQNIYFNLEKFSMTLIVFNSKINKFIYSQEK", "modifications": "bait human Fc-tagged dimer; N-glycosylation sequons mutated in Plasmodium baits"}},
  "assay_in_all_cases": "AVEXIS screen signal:noise (double-corrected)",
  "key": {"[1]": {"target": "ADP132"}, "[2]": {"target": "ADP110"}, "[3]": {"target": "T1, ADP325", "T1 chain": "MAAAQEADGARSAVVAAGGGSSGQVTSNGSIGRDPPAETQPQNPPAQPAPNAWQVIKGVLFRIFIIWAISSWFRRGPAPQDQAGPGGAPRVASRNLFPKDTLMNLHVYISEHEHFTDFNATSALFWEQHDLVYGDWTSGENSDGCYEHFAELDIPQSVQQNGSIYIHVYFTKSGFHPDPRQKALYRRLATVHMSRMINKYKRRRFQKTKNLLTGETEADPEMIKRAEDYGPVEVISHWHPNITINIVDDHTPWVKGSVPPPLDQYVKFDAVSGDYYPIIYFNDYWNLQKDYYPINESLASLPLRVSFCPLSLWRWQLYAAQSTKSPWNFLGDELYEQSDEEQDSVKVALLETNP"}, "[4]": {"target": "T2, ADP296", "T2 chain": "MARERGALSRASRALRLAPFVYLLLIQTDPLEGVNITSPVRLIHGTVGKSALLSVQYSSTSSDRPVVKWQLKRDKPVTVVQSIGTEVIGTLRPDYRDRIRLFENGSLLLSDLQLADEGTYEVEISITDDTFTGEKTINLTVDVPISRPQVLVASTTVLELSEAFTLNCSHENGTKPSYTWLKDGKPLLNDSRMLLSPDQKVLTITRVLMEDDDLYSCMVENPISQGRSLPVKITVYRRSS"}, "[5]": {"target": "T3, ADP141", "T3 chain": "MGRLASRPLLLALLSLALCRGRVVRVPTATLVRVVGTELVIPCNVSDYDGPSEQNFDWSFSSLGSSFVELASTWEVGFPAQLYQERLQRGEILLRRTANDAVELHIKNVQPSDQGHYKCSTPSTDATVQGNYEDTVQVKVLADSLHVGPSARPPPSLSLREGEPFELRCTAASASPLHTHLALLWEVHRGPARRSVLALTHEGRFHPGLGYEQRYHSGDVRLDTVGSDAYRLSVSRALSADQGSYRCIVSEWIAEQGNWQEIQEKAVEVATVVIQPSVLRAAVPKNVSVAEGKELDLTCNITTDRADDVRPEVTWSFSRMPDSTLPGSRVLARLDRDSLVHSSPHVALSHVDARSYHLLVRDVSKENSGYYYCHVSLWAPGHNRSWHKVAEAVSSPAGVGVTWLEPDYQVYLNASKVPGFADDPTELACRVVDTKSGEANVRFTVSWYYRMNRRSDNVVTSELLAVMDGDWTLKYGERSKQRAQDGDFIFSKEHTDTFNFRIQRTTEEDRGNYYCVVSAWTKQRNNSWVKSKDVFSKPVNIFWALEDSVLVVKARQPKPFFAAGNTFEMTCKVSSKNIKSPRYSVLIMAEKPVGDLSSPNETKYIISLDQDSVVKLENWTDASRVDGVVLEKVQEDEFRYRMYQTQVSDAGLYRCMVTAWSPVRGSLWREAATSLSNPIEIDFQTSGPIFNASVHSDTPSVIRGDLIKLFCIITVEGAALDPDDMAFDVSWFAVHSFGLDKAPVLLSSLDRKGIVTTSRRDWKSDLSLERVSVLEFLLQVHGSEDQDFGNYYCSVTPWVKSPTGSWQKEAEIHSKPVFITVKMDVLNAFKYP"}, "[6]": {"target": "T4, ADP104", "T4 chain": "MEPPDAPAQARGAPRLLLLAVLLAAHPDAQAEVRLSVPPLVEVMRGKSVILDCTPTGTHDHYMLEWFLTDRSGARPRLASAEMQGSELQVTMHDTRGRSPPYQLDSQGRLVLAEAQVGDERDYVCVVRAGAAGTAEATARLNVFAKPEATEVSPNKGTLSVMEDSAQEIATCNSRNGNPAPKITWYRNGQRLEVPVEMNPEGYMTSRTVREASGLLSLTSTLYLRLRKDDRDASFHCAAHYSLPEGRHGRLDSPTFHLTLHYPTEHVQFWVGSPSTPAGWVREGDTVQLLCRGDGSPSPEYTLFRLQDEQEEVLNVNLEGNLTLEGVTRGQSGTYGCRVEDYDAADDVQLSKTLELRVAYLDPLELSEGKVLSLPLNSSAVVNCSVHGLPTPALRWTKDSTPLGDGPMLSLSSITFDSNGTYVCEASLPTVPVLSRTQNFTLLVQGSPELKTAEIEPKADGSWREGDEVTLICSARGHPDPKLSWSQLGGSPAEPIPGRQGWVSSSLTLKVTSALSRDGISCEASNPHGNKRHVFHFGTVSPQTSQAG"}, "[7]": {"target": "T5, ADP285", "T5 chain": "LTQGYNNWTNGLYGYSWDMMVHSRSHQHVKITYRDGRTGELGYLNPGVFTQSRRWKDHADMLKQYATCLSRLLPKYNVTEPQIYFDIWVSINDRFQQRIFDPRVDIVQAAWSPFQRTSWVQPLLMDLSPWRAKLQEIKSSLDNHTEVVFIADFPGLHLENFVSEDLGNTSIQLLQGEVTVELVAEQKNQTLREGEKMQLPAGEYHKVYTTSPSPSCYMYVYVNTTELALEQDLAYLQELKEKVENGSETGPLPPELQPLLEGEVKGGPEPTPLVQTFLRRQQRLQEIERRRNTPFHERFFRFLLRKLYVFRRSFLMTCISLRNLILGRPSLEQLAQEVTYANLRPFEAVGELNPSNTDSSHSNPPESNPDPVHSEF"}, "[8]": {"target": "T6, ADP101", "T6 chain": "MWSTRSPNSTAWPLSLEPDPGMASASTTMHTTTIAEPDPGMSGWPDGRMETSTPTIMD"}, "[9]": {"target": "T7, ADP360", "T7 chain": "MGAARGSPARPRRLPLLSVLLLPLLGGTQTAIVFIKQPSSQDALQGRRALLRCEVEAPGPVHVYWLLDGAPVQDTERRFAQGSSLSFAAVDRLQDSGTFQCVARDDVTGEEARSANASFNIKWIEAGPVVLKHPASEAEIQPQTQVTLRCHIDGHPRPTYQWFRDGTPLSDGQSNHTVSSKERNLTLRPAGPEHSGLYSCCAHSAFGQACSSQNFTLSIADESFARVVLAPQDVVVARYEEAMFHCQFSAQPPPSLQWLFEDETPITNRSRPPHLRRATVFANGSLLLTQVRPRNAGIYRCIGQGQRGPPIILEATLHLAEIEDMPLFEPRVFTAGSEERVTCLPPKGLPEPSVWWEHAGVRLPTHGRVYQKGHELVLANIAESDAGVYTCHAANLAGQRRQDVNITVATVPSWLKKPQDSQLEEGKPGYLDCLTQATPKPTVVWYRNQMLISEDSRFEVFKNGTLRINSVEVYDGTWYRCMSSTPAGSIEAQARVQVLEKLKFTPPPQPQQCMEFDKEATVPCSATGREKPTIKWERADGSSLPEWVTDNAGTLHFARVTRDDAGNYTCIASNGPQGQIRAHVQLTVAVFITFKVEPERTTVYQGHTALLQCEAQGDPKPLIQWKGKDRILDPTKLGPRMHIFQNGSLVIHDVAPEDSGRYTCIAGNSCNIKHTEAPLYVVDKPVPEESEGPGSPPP"}, "[10]": {"target": "T8, ADP103", "T8 chain": "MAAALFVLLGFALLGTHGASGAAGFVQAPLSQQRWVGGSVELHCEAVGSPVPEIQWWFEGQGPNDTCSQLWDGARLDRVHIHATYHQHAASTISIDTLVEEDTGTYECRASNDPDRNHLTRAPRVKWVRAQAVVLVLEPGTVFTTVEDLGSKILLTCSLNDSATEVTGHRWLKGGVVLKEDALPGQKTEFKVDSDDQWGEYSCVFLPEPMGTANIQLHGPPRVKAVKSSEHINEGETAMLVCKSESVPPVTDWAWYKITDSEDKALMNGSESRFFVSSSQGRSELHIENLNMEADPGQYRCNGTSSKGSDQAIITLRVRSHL"}, "[11]": {"target": "T9, ADP353", "T9 chain": "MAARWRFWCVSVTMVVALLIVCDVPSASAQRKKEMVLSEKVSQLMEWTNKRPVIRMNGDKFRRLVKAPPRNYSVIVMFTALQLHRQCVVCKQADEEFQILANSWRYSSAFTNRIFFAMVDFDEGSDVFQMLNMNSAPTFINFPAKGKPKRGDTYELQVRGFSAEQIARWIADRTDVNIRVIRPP"}},
  "data": [
    {"binder": "B1", "values": [
      {"measurement": "binding score", "setting": "[1]", "value": 11.3},
      {"measurement": "binding score", "setting": "[2]", "value": 11.4}
    ]},
    {"binder": "B2", "values": [
      {"measurement": "binding score", "setting": "[3]", "value": 6.14}
    ]},
    {"binder": "B3", "values": [
      {"measurement": "binding score", "setting": "[4]", "value": 6.11},
      {"measurement": "binding score", "setting": "[5]", "value": 5.97},
      {"measurement": "binding score", "setting": "[6]", "value": 7.73}
    ]},
    {"binder": "B4", "values": [
      {"measurement": "binding score", "setting": "[7]", "value": 7.62},
      {"measurement": "binding score", "setting": "[8]", "value": 6.6},
      {"measurement": "binding score", "setting": "[9]", "value": 6.35},
      {"measurement": "binding score", "setting": "[10]", "value": 4530}
    ]},
    {"binder": "B5", "values": [
      {"measurement": "binding score", "setting": "[11]", "value": 21.4},
      {"measurement": "binding score", "setting": "[10]", "value": 5.51}
    ]}
  ]
}
